This sample holds only a part of the variants without activity.
B1: TPR 5TU (parent)
chain: GGAUCUUCUCGAUCUAACAAAAAAGACAAAUCUGCCACAAAGCUUGAGAGCAUCUUCGGAUGCAGAGGCGGCAGCCUUCGGUGGCGCGAUAGCGCCAACGUUCUCAACUAUGACACGCAAAACGCGUGCUCCGUUGAAUGGAGUUUAUCAUG

Variants of: B1
Assay: polymerase ribozyme fitness, log enrichment relative to wild type (log ratio); higher = more active; in vitro selection for triplet polymerase activity
Outline: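 Each subunit of a heterodimeric triplet polymerase ribozyme was mutagenized into a library by PCR, transcribed, and subjected to one round of in vitro selection, run in triplicate. Libraries were annealed with a biotinylated primer, the partner subunit and triplets, incubated frozen at −7 °C, and extended constructs were gel-excised, captured on streptavidin beads and recovered by RT-PCR. Input and output libraries were sequenced on Illumina, keeping genotypes with ≥10 input reads and ≥1 read per output. Fitness is log base 2 of genotype enrichment divided by wild-type enrichment, from inverse-variance-weighted replicate averages.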

Variant	polymerase ribozyme fitness (log ratio)
U6A G58C G94A	-0.942
U45A G83C	-3.51
C75A C87A G88A	≤ -4.2
A52G C95G A107G A120G U139C	-4.13
C85U A98U	-1.49
A24C G42A A52G U55A C76U C123G G126A	≤ -4.2
A39U G80A C123G	-2.65
C32A A37C	≤ -4.2
A52G A142U	-0.597
A22U U56A A106U A107C A142G	≤ -4.2
A21U A47G C54U G81C G92A C95A C99U	-3.94
U45A G58A G83A U148C	≤ -4.2
A28G U33G G34U G59C U104G C118U	≤ -4.2
C43G A49C C51U G62A G88A A91G C125U A137G	≤ -4.2
C36U G42C U53A G59A U78A C87U	≤ -4.2
A49C C99U U102G	-0.308
G46U A98G	0.0194
C54U U56A A60U G70U A115G A150C	≤ -4.2
A20U G50A C85U	-3.83
U45A C85G	-3.95
G83C U104G C116U	-1.3
A12G G58A G81C G84A G133C U144G	-1.22
A39C A49G	-3.48
C27U G34U C93U G112C U148G	≤ -4.2

Variant	polymerase ribozyme fitness (log ratio)
A21U G34A G83C	-2.46
C43A C69G G92C	≤ -4.2
G11C C57G U82A G83U G141U	-2.65
G94C G100U	-3.69
C85G C114G G141U	-4.17
G68A G83U C118G G136U	≤ -4.2
A3C A22U A37G C54G C57U C85U G88C G117C C129U	≤ -4.2
C72G U101G	≤ -4.2
C51U C72U G80A C85A U109G	≤ -4.2
A29U U104C	-4.14
C36G C87U A106U	≤ -4.2
A64G G84U U151A	≤ -4.2
A52U C87A A97U U127C A142C	≤ -4.2
C54G G59A C76A C85G A121C C123A U127G G140C G143U A150C	≤ -4.2
C85U C95A U127G	-3.88
G92A A138C U148C	≤ -4.2
G94C C96U G136A G140A	≤ -4.2
G58C A97U	-0.712
C43G G67U G83U C93G C103U C116A	≤ -4.2
G83C C129G A137C U145C	≤ -4.2
U13A	-0.225
U13A A24U C87A C123A	≤ -4.2
G50A C57G G81A C85U C116U	-2.31
G25C C54U A73G G84A C85A A89C	≤ -4.2

Variant	polymerase ribozyme fitness (log ratio)
U15G G152U	-2.98
G46A G143C	-3.81
U6A U13G C96A C105U	-2.15
C38G U45G U56A C93G C123A U127G	≤ -4.2
C69A C85U C123A	-2.37
C51A A52C C116U C118A A142U	≤ -4.2
C35U C57U	0.194
U55A G62U C63G C87U A98U A120U C149G	≤ -4.2
U45A U55A	-2.95
U144G	0.948
A29U A47C U55G C87U A98G	≤ -4.2
A17C G34A C96G A121G A122C U134C	-1.47
A3U A19U	-0.0693
U56A G81U C93U G141C	-1.52
A41U C85U C99A C105A C118G A119C	≤ -4.2
C38G C51U C95A C99G A106U C125A U134A	≤ -4.2
G48A U55A A119U G124U U144C	-1.13
C27U C54U G58A A106G	-0.532
C57G A113G	-3.44
C57U G117C A122G	0.204
A17G A26C C32U G59A C75U	≤ -4.2
C18U C54G G59A C93A G136U	≤ -4.2
A22U A26C A47C C57A G62A G86A A89U A106U C108G	≤ -4.2
A19U G58C C87U C95U C116G	-1.52

Variant	polymerase ribozyme fitness (log ratio)
G94C A115U	-2.98
A21U G92A	-2.72
A37U G42C	-3.9
G25A C51U G92U A119U G124U	-3.78
A23C A64G G70C	≤ -4.2
C54U U55A G86A C116G	-2.2
C36U A40G C108G G140A	≤ -4.2
A22U G46A	0.387
A19C U61C G141C U144C C149A	≤ -4.2
G50U C87U	-1.51
G71U A89U C95A	-3.94
A22U C36G C105G	≤ -4.2
U56A A107U	-2.87
C5A U9C C85A	-2.68
U6A G62A C76A A91U A121U C123A A138C G141U	≤ -4.2
U9A C93G	≤ -4.2
G25U G34U A47C A89G	≤ -4.2
G50C C85A C93A	≤ -4.2
A60G U90A C95A G117A	-3.93
C10G C14U G50C C54A C76G C105G	≤ -4.2
A20U G81A A89G C93U C129U	-3.56
A17U U53G C57U G59C G117U	-0.451
U44G A73G A91G A107C	≤ -4.2
G34A U55A G70U G80U G86A	≤ -4.2

Variant	polymerase ribozyme fitness (log ratio)
C10G A20C C36A U53A U134A A142U	≤ -4.2
U31A	0.37
C14G C27A A37U C54U G67A G94U C105G	≤ -4.2
A12U C35G C36G U55G G86U	≤ -4.2
G50U G58A	0.88
A12C A52C C54U C96A	-3.95
C14G C38U C95G A106C	-4.14
C14G C72U	-3.04
A49C C69U G84A C93U C96U C129G U148C	≤ -4.2
A37G A47G U101C	-2.53
A22U C35U U55A G59A G65A C85U C105A	≤ -4.2
C10G A39U G84A	≤ -4.2
C38U U55A G59C U135C	-1.98
C27G C54A	-3.98
A20G U55G C116U A121C	-0.705
C51A C72U G74C C93A G141A	≤ -4.2
G83C G92U A137G	-3.45
G62U U145G	-0.51
A22G C51G A91U G94U U144C	≤ -4.2
A23U A26U U33G A37C C72G C76A C95G U144C	≤ -4.2
C5G C8U A12U C27G G59C A66G U78C U101A C125G C131A U139C	-3.97
G62C G94A G133C G141U	-3.95
C14A C27G	≤ -4.2
A16U A19U C32G A60U A91U C99U A138C	≤ -4.2

Variant	polymerase ribozyme fitness (log ratio)
A12G U78G A89G C95U U109C U145C A150G	≤ -4.2
A47G U55A C116G	-0.139
A41U G68U C93U A106G	≤ -4.2
C8A A40U C57U U78A A119C	≤ -4.2
A29U C36A A47C C118U U146C	≤ -4.2
C72G C99G U139A	≤ -4.2
G59C C96G C118G A142U	-3.61
A16U A47C U53A C85G C131A U134A G140U	≤ -4.2
G48C U55A C93G	-3.87
U53C C57A C95U A98G U104A	-0.528
C85U G88A U151G	≤ -4.2
C125U	-0.476
A22G U144C	0.51
C57G C93G	-4.06
A47C C51G C87U A89U A107G	≤ -4.2
U127G A147U	-3.92
A28U C87U A106U C108U A119C U148C	≤ -4.2
C5U U55G C79G C87A A97U A106C	≤ -4.2
A41C G84A	-0.601
A52G U53G A106C A119U G136U	≤ -4.2
A60C A73U	-3.54
A3C A12G C87G	-3.93
C69G C93U	-3.1
G46C A49U U56A G86A C87A C103G A147U	≤ -4.2

Variant	polymerase ribozyme fitness (log ratio)
A26C A91G G136C	≤ -4.2
A66C A91G A98U C131A U139A	≤ -4.2
C10G U144C	-3.87
G62A C76A C79A C96A	≤ -4.2
A20C A21U U55A G59C C85A G126U	-0.602
C54U C93A A110G A137G G140C	-4.1
G50U C105U	0.638
C96U A147G	-1.18
C27U A37C G59U G92C G117C	-3.65
U4G C38U C93G	-2.52
G42A G50A A66U G88A C96G U139C	≤ -4.2
A47U U55G G68A G84U U151A	≤ -4.2
C14U U31C C76U G84U A142G G143U U146G	≤ -4.2
C99A U135A	-2.77
G50C A60G	-2.31
A29G G46C A47C C132U U146A	-4.16
A40U G141U	0.96
A24U A49U C51U G70A C85U G112U C114A A122U U146C	≤ -4.2
U101A C105U C114A	-3.17
C14G U61A	-3.55
A40U A60G A89U U134C	-0.16
U15A G59A A60G C69A A121C G140A	-3.82
C35U C54U U55A C116G	0.41

From the RNAGym collection of RNA variant scans (doi:10.1073/pnas.2313332121)
